Target: T1, Human CD73 expressed on CHO-K1 cells (CHO-K1-hCD73) (human, UniProt P21589 27-549)
T1 construct: whole, on cells
T1 sequence (looked up): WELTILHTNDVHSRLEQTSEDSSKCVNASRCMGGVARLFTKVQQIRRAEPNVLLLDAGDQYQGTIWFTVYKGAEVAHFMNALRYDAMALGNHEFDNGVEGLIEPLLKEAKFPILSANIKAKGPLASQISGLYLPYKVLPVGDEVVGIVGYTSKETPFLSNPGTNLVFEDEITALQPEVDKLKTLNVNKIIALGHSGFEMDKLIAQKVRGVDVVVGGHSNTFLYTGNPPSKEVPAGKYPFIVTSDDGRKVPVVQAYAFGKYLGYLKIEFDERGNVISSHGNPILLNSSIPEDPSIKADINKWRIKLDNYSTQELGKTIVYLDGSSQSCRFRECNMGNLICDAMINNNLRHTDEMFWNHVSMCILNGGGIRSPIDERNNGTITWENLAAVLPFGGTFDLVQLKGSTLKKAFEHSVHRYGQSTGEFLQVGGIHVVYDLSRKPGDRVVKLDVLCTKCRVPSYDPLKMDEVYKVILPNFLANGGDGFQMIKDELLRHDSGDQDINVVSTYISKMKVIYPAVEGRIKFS
Test: FACS, CHO-K1-hCD73 cells
Experimental: In order to investigate the binding activity of the CD73×PD-1 bispecific antibody to human CD73 and PD-1, the binding assay at the cellular level was performed using a CHO-K1 cell strain overexpressing human CD73 or PD-1 (CHO-K1-hCD73 or CHO-K1-hPD-1). Briefly, the CHO-K1-hCD73 and CHO-K1-hPD-1 cells were digested and resuspended in an F-12K complete medium, and the cell density was adjusted to 1×10⁶ cells/mL. The cells were seeded in a 96-well V-bottom plate (Corning, #3894) at 100 μL/well, followed by the addition at 100 μL/well and centrifugation at 500 g at 4° C. for 5 min, and then the supernatant was discarded. Antibodies were 3-fold diluted to a maximum final concentration of 50 nM, and a total of 8 concentrations were set. 100 μL of the diluted antibodies was added to each well, and the cells were incubated at 4° C. for 1 h away from light. Thereafter, the cells in each well were rinsed twice with 100 μL of pre-cooled PBS, and centrifuged at 500 g at 4° C. for 5 min, and then the supernatant was discarded. Then 100 μL of a fluorescent secondary antibody (goat anti-human IgG (H+L) secondary antibody, Alexa Fluor® 488 conjugate, Invitrogen, Cat #A11013, 1:1000) was added to each well. […] Finally, the cells in each well were resuspended in 200 μL of pre-cooled PBS, and the fluorescence signal values were read using a BD FACS CANTOII.

B1: PR000846 (antibody, human IgG1, kappa, L234A L235A, V domains shown)
VH: QVQLVESGGGVAQPGRSLSLSCAASGFTFSDYGMHWVRQAPGKGLEWVALIWYDASFEYYADSVKGRFSISRDNSKNTLYLQMNSLRAEDTAVYYCVRDAQWGSRLDYWGQGTLVTVSS
VL: KIVMTQSPATLSLSPGERATLSCRASQSVSRYLAWYQQKPGQAPRLLIYDASNRATGIPARFSGSGSGTDFTLTISSLEPEDFAVYYCQQRSNWIFTFGPGTKVDIKR
notes: Parent monoclonal antibody of the CD73 end of PR003568; also called anti-CD73 IgG monoclonal antibody PR000846; anti-CD73 H2L2 antibody PR000846
- EC50: 1.45 nM
